Laboratory results reported in patent publication US20240043859A1, “HERBICIDE-RESISTANT PROTEIN, AND GENE AND USE THEREOF” (QINGDAO KINGAGROOT CHEMICAL COMPOUND CO., LTD., priority 2020, published 2024).

B1: QYD66: AAD-like candidate enzyme; 100.00% identical to US20140194292-0002 (protein)
chain: MERHAMSNGKQIVRIEPLPGKTFGAVVTGVRLSELDEDTFSLLYREWLQYALLIFPAQYLTDSQQRDAASKFGCLVEGLEAVEISNLLPTGEVRAAPDDDMMKIIRGNMQWHQDNTYMPLQAKGALFSAKRVPSSGGETGFADMRAAWDALDTETQDRLANLSAYHSLAQSQKNLGEDVKSSDSEYIGYGLDVSTVPRRSLLKIHPETDRKTLAVGRHAFGVTGMAEQESTQFVSDLIDFAVADESRTYHHIWSEGDAILWDNRCLMHRACPWNFSQPRVMLHSRIAGDPSTEAALNS
modifications: Synthetic polypeptide, QYD66, D66
B2: QYD65: AAD-like candidate enzyme; 100.00% identical to CN103013939-0002 (protein)
chain: MAIAIRQLHPHFVGEVSGVDLRHPLTRDEVAELQAAIDHYAVLVFHDQDIGDEQQLAFALNFGDREKARGGTVTKKEDYRLTTGLNDVSNLGKDGKPLPPDHRTHLFNLGNCLWHSDSSFRPIPAKYSILSARIVNPKGGNTEFADMRAAYDALDEQTKAEIDDLVSEHSLMYSRGSLGFLDYTDEEKKMFKPVRQRLVRTHPAHGRKSLYLSSHAGAVVGMSMPEGRLLLRDLTEHATQPEFVYVHKWRLHDLVMWDNRQTVHRVRRYDQSQPRDMRRATVAGTEPTVAQQAAE
modifications: Synthetic polypeptide, QYD65, D65
B3: QYD67: AAD-like candidate enzyme; 100.00% identical to US20180244732-0002 (protein)
chain: MSPAFDIAPLDATFGAVVTGVHLATLDDAGFAALHAAWLQHALLIFPGQHLSNDQQITFAKRFGAIERIGGGDIVAISNVKADGTVRQHSPAEWDDMMKVIVGNMAWHADSTYMPVMAQGAVFSAEVVPAVGGRTCFADMRAAYDALDEATRALVHQRSARHSLVYSQSKLGHVQQAGSAYIGYGMDTTATPLRPLVKVHPETGRPSLLIGRHAHAIPGMDAAESERFLEGLVDWACQAPRVHAHQWAAGDVVVWDNRCLLHRAEPWDFKLPRVMWHSRIAGDPASETALAH
modifications: Synthetic polypeptide, QYD67, D67
B4: QYD69: AAD-like candidate enzyme; 100.00% identical to US20170211087-0004 (protein)
chain: MAQTTLQITPTGATLGATVTGVHLATLDDAGFAALHAAWLQHALLIFPGQHLSNDQQITFAKRFGAIERIGGGDIVAISNVKADGTVRQHSPAEWDDMMKVIVGNMAWHADSTYMPVMAQGAVFSAEVVPAVGGRTCFADMRAAYDALDEATRALVHQRSARHSLVYSQSKLGHVQQAGSAYIGYGMDTTATPLRPLVKVHPETGRPSLLIGRHAHAIPGMDAAESERFLEGLVDWACQAPRVHAHQWAAGDVVVWDNRCLLHRAEPWDFKLPRVMWHSRLAGRPETEGAALV
modifications: Synthetic polypeptide, QYD69, D69
B5: QYD64: AAD-like candidate enzyme; 100.00% identical to US20180066275-0002 (protein)
chain: MSLQLKPLHPVFGAEASGLDLTRPLSDADVRAVNAAMNEHAVLVFRGQPLTAQQQLDFAKHFGPLDIGLKRVFKRPERLEDERLIDISNVDAQGNIARRDSPKNLSNFANQLWHSDSSFMNPRAAYSMLHCVIKPSWGGNTEFADLRHAYDTLDERTKAEIQDLKAEHFALHTRILLGDDAYTDDQKKEIPPAVWPLADTHPGSGRKVLFVGVHAREIIGWPVAEARMYLSDLLEHATRRENVYVHEWTPGDLVIWDNRSTLHRGRRYDITERRELRRTTINDTPEAMLMAA
modifications: Synthetic polypeptide, QYD64, D64
B6: QYD70: AAD-like candidate enzyme; 100.00% identical to US20190017066-0048 (protein)
chain: MHAALTPLTNKYRHIDVQPLTGVLGAEITGVDLREPLDDSTWNEILDAFHTYQVIYFPGQAITNEQHIAFSRRFGPVDPVPILKSIEGYPEVQMIRREANESSRYIGDDWHADSTFLDAPPAAVVMRAIEVPEYGGDTGFLSMYSAWETLSPTMQATIEGLNVVHSATKVFGSLYQATNWRFSGTSVKVMDVDAGDRETVHPLVVTHPVTGRRALYCNQVYCQKIQGMTDAESKSLLQFLYEHATQFDFTCRVRWKKDQVLVWDNLCTMHRAVPDYAGKFRYLTRTTVAGDKPSR
modifications: Synthetic polypeptide, QYD70, D70
B7: QYD60: AAD-like candidate enzyme; 100.00% identical to US20160002662-0002 (protein)
chain: MSPAFDIAPLDATFGAVVTGVKLADLDDAGWLDLQAAWLEYALLVFPDQHLTREQQIAFARRFGPLEFEMAAISNVRPDGSLRVESDNDDMMKILKGNMGWHADSTYMPVQAKGAVFSAEVVPSVGGQTGFADMRAAYDALDEDLKARVETLQARHSLHYSQSKLGHQTKAADGEYSGYGLHDGPVPLRPLVKIHPETGRKSLLIGRHAHAIPGLEPAESERLLQQLIDFACQPPRIYHHDWAPGDAVLWDNRCLLHQATPWDMTQKRIMWHSRIAGDPASETALAH
modifications: Synthetic polypeptide, QYD60, D60
B8: QYD68: AAD-like candidate enzyme; 100.00% identical to JP2018506305-0002 (protein)
chain: MSPAFDIAPLDATFGAVVTGVKLADLDDAGWLDLQAAWLQHALLIFPGQHLSNDQQITFAKRFGAIERIGGGDIVAISNVKADGTVRQHSPAEWDDMMKVIVGNMAWHADSTYMPVMAQGAVFSAEVVPAVGGRTCFADMRAAYDALDEATRALVHQRSARHSLVYSQSKLGHVQQAGSAYIGYGMDTTATPLRPLVKVHPETGRPSLLIGRHAHAIPGMDAAESERFLEGLVDWACQAPRVHAHQWAAGDVVVWDNRCLLHRAEPWDFKLPRVMWHSRLAGRPETEGAALV
modifications: Synthetic polypeptide, QYD68, D68
B9: QYD61: AAD-like candidate enzyme; 100.00% identical to US20190024109-0292 (protein)
chain: MSVVANPLHPLFAAGVEDIDLREALGSTEVREIERLMDEKSVLVFRGQPLSQDQQIAFARNFGPLEGGFIKVNQRPSRFKYAELADISNVSLDGKVAQRDAREVVGNFANQLWHSDSSFQQPAARYSMLSAVVVPPSGGDTEFCDMRAAYDALPRDLQSELEGLRAEHYALNSRFLLGDTDYSEAQRNAMPPVNWPLVRTHAGSGRKFLFIGAHASHVEGLPVAEGRMLLAELLEHATQREFVYRHRWNVGDLVMWDNRCVLHRGRRYDISARRELRRATTLDDAVV
modifications: Synthetic polypeptide, QYD61, D61
B10: QYD63: AAD-like candidate enzyme; 100.00% identical to US20140179534-0002 (protein)
chain: MSSLELTPLHPLFAAEARGIDIRQPLSPSEVKQINAAMNRYAVLVWRGQPLTGQQQIDFAKAFGPLDLGLKKVFKRPERLEDERLIDISNVDAEGKVARRDSPKNLSNFANQLWHSDSSFQNPRAAYSMLHALVLPSWGGNTEFAELRAAYDALPERTRSEIEGLRAEHYALHTRILLGDEAYTDDQKKAIPPAVWPLAQTHPGSGRKLLFVGVHAREIIGWPVAEGRMFLSDLLEHATRREFVYTHEWQVGDLVMWDNRSTLHRGRRYDIGERRELRRTTIEDVPEATLMAA
modifications: Synthetic polypeptide, QYD63, D63
B11: QYD71: AAD-like candidate enzyme; 100.00% identical to CN109456986-0002 (protein)
chain: MPFQVNQLHPIFAAEMFGCDILKPVTDETRNAVEDAMAKYAVLVIRDQAAASDEDQVRFAKAFGPLELPPDLGMSERTRPTRVHPKLYDVSNLDENGNLDKPDTLRRKFAKGNELFHTDSSFNDLPTKWSMLLAHVVTPTGGNTEFVDTRAAYDALSPSMKEQVEPLSVIHSLTYSRERGGLTGTTVFDRAFPPVTQPLVRTSASGRKALYIGAHAATVVGMDEAAGRTLLDKLISDASRPEYIYSHKWLPGDLVIWDNRCTMHRATEYAYMEDRRDLRRATINEFGEDRVGARPI
modifications: Synthetic polypeptide, QYD71, D71

Test: Chromogenic reaction of degrading herbicides in bacteria: 2,4-D
Type: cell-based, Escherichia coli
Conditions: recombinant E. coli expressing the gene, 2,4-D added to the medium; red = phenols
Description: To transform the plasmids to be tested, an AAD12-expressing plasmid and a blank control plasmid pET15b were respectively transformed into the protein expression E. coli BL21(DE3) strains. A monoclone was selected and inoculated in a 10 ml centrifuge tube with 3 ml LB medium, and cultivated at 37° C., 200 rpm for 6-8 hours. The culture medium was added with 0.1 mM IPTG and 2 mM α-ketoglutaric acid, and then 0.5 mM 2,4-D. The temperature was switched to 28° C. and the cultivation continued overnight. In the next morning, 200 μL of each bacteria solution was taken and centrifuged to precipitate thallus, 180 μL of the supernatant was taken and added in a 96-well plate, and 20 μL of borate buffer of pH 10 was added. Then the mixture was added with 2 μL of 8% potassium ferricyanide and mixed well, followed by adding 2 μL of 2% 4-aminoantipyrine, and placed at room temperature for 5 min to observe the color and detect the A510 value.
The bacteria solution also appeared red when 2,4-D was directly added into the medium of AAD12-expressing bacteria, as shown in FIG. 1.
2,4-D was added into these bacteria solutions of AAD gene-expressing recombinant E. coli and cultivation was continued for color development.
In the case of B1, the “Chromogenic reaction of degrading herbicides in bacteria: 2,4-D” value (“Chromogenic reaction” below) is reported as “Yes”. In the case of B2, the “Chromogenic reaction” value is reported as “Yes”. For B3, the “Chromogenic reaction” value was “Yes”. With B4 the “Chromogenic reaction” value was “Yes”. With B5 the “Chromogenic reaction” value was “Yes”. In the case of B6, the “Chromogenic reaction” value is reported as “Yes”. For B7, the “Chromogenic reaction” value was “Yes”. With B8 the “Chromogenic reaction” value was “Yes”. With B9 the “Chromogenic reaction” value was “Yes”. For B10, the “Chromogenic reaction” value was “Yes”. In the case of B11, the “Chromogenic reaction” value is reported as “Yes”.
